The values below come from US20170002074A1 (Genentech, published 2017).

B1: 33H4 (antibody, V domains shown)
VH: EVQLQQSGAELVKPGASVKMSCKAFGYTFTTFPIEWMKQSHGKSLEWIGNFHPYNDQTKYNEEFKGRAKLTIDRSSSTVYLELGRLTSDDSAVYYCARGYYYAFDFWGQGTTLTVSS
VL: DIQMTQSPASLTVSLGQRATISCRASESVDSYGNSYLHWYQQKPGQPPQLLIYLASNLESGVPARFSGSGSRTDFTLTIDPVEADDAATYYCQQNNEDPWTFGGGTKVEIK
B2: 23E4 (antibody, V domains shown)
VH: EVQLQQSGAELVRPGASVKLSCKASGYTFTNYWMNWVKQRPGQGLEWIGMIDPSDNETHYSQMFKDKATLTVDKSSSTAYMQLISLTSEDSAVYYCAGYYGNFGWFVYWGQGTLVTVSA
VL: DIFMTQTPLSLPVSLGDPASISCRSSQTIVHSNGNTYLEWYLQKPGQSPKLLIYKVSNRFSGVPDRFSGSGSGTDFTLKISRVEAEDLGVYYCFQGSHVPPTFGGGTKVEIK
B3: 9C2 (antibody, V domains shown)
VH: QVQLVQSGAEVKKPGSSVKVSCKASGDTFSSYSISWVRQAPGQGLEWMGEIIPIFGTADYAQKFQGRVTITADISTTTAYMELSSLRSEDTAVYYCARTWADAFDIWGQGTMVTVSS
VL: not shown
B4: 10D3 (antibody, V domains shown)
VH: EVQLVESGAEVKKPGSSVKVSCKASGGTLISHAISWVRQVPGQGLEWMGGIIPIFGSANYAQKFQGRVTITADDSTNTAYLELSSLRSEDTAVYYCARELLDVFDIWGQGTMVTVSS
VL: not shown
B5: 7A1 (antibody, V domains shown)
VH: B3 VH with D27G, S30T, S33A, I34V, E50G, I74E, T77S, T99E, W100L, A103V
VL: not shown
B6: 33F9 (antibody, V domains shown)
VH: EVQLQQSGPELVKPGASVKMSCKASGYTFTSYVMHWMKQKPGQGLEWIGYINPYNDGTKYNDKFKGKATLTSDKSSSTAYMELSSLTSEDSAVYYCARGSNYEDFAMDYRGQGTSVTVSS
VL: DIVMTQSPASQSASLGESVTITCLASQTIGTWLAWYQQKPGKSPQLLIYAATTLADGVPSRFSGSGSGTKFSFKISSLQAEDFVSYYCQQLYSTPLTFGGGTKVEIK
B7: 27C6 (antibody, V domains shown)
VH: EVQLQQSGPELVKPGASVKVSCKASGYAFTSYNMYWVKQSHGKSLEWIGYIDPYNGGTRHNQKFKDKATLTVDKSSSTAYMHLNSLTSEDSAVYYCASQNYEYFDYWGQGTTLTVSS
VL: DIVLTQSPKFMSTSVGDRVSITCKASQDVGDAVAWYQQKPGQSPKLLFYWTSTRHTGVPDRFTGSGSGTEFTLTIRNVQSEDLADYFCQQYRSTPLTFGSGTKVEIK
B8: 15G15.33 (antibody, V domains shown)
VH: QVQLVQSGAEVKKPGSSVKVSCKASGGIFSNHAISWVRQAPGQGLEWMGGIIPIFGTANYAQKFQGRVTITADESTSTAFMELSSLRSEDTAVYYCAREWADVFDIWGQGTMVTVSS
VL: EIVLTQSPLSLPVTPGEPASISCRSSQSLLHSNGYNYLDWYLQKPGQSPQLLIYLGVNSVSGVPDRFSGSGSGTDFTLKISRVEAEDVGVYYCMQALQTPWTFGQGTKVEIK
notes: Variant of 15G15
B9: 15G15.88 (antibody, V domains shown)
VH: B8 VH
VL: B8 VL with V57N, N58Y, S59R
notes: Variant of 15G15
B10: 15G15.83 (antibody, V domains shown)
VH: B8 VH
VL: B8 VL with V57A, N58Y, S59T
notes: Variant of 15G15
B11: 9C3 (antibody, V domains shown)
VH: EVQLVESGGALIQPGGSLRLSCVASGFTISGNYMSWVRQAPGKGLEWVSLIYSGDSTYYADSVKGRFNISRDISKNTVYLQMNSLRVEDTAVYYCVRDGYYVSDMVVWGKGTTVTVSS
VL: DIQMTQSPSSLSASVGDRVTITCRASQGIRNDLGWYQQKPGKAPKRLIYAASSLQSGVPSRFSGSGSGTEFTLTISSLQPEDFATYYCLQHNSYPWTFGQGTKLEIK
modifications: atypical N-linked glycosylation site in the heavy chain between CDR2 and CDR3 at position 69 (kabat #)
B12: 9C3.4 (antibody, V domains shown)
VH: B11 VH with N68A
VL: B11 VL
notes: Variant of 9C3 with the heavy chain N-glycosylation site removed
B13: 9C3.3 (antibody, V domains shown)
VH: B11 VH with N68S
VL: B11 VL
notes: as for B12
B14: 9C3.2 (antibody, V domains shown)
VH: B11 VH with N68T
VL: B11 VL
notes: as for B12
B15: 15G15 (antibody, V domains shown)
VH: B8 VH
VL: not shown

Positions count from the first letter of the chain named.

In one assay the target is T1, Cynomolgus monkey CD33 (cynomolgus monkey).
T1 construct: Used for recombinant CD33 on HEK293AD cells and endogenous CD33 on cynomolgus CD14+/CD33+ myeloid cells; also called cynoCD33; cyno CD33
Description: Scatchard analysis, HEK293AD cells stably expressing cynomolgus CD33; Scatchard analysis on 293-cynCD33 cells.
Turning to B1, the binding result is given as “no binding”.

A further assay deals with T1, Cynomolgus monkey CD33. The assay can be described thus: FACS, HEK293AD cells stably expressing cynomolgus CD33.
B2: the binding result is recorded as “no binding (tested: 1 mg/ml)”.

Another assay addresses T2, Construct-88B: CD33 Ig-like V (M17-V136 including spacer H137-H143) linked to an irrelevant Ig-like C … (human).
T2 construct: also called Ig-like V domain of huCD33
Description: FACS on 293 cells transiently transfected with construct 88B, Dylight-650 labelled antibody at 1-10 µg/ml.
Take B3: the “Geom. Mean:FL4-H” value was 366.

With B4, the “Geom. Mean:FL4-H” value stood at 684.

With B5, the “Geom. Mean:FL4-H” value is 772.

In a further assay the target is T3, huCD33 R69G variant (human, UniProt P20138 18-364).
T3 construct: also called G69 CD33; SNP R69G (r2455069)
Description: FACS, direct Dylight 488 conjugate, on 293AD cells labelled 'SNPG69R', taken as the SNP variant of paragraph 650. In general terms: In flow cytometry, cells or beads pass a laser one at a time.
Consider B6, for which the “Geom. Mean:FL1-H” value is 85.2.

B2: the “Geom. Mean:FL1-H” value is 50.1.

Take B1: the “Geom. Mean:FL1-H” value came out at 78.7.

In the case of B7, the “Geom. Mean:FL1-H” value was found to be 32.3.

In another assay the target is T4, Human CD33 (human, UniProt P20138 18-364).
T4 construct: One molecule is used for recombinant CD33 on HEK293AD/293 cells and for endogenous human CD33 on tumor or myeloid cells; the cell is named under assay; also called huCD33; hu CD33
The assay can be described thus: Scatchard analysis, [125I]-labeled antibody competed by unlabeled antibody, Molm-13 cells (endogenous CD33).
By Kd is commonly meant the equilibrium constant for the complex coming apart. On to B6, for which the dissociation constant Kd is about 9.2 nM.

B3 returned a Kd of 10.3 nM.

For the molecule B4, the Kd worked out at 2.6 nM.

B8 registered an equilibrium dissociation constant (Kd) of 0.9 nM.

The molecule B9 registered a dissociation constant (Kd) of 0.8 nM.

In turn, B10 yielded a Kd of 0.5 nM.

Molecule B11 gave a dissociation constant Kd of 5.8 nM.

Take B12: binding was characterised by a dissociation constant (Kd) of 2.7 nM.

Regarding B13, the dissociation constant (Kd) turned out to be 2.2 nM.

With B14, binding was characterised by a dissociation constant (Kd) of 2 nM.

In the case of B1, binding was characterised by a dissociation constant (Kd) of 0.6 nM.

B7 returned a Kd of 23 nM.

In a further assay the target is T5, Construct-88: irrelevant Ig-like V linked to a CD33 Ig-like C (R144-Q228 including TM/CD L229) (human).
T5 construct: N-terminal or cytoplasmic tags were attached
The assay can be described thus: FACS on 293 cells transiently transfected with construct 88, Dylight-650 labelled antibody at 1-10 µg/ml.
For B3, the “Geom. Mean:FL4-H” value was found to be 11.2.

With B4, the “Geom. Mean:FL4-H” value turned out to be 12.1.

For B5, the “Geom. Mean:FL4-H” value turned out to be 13.

In another assay the target is T3, huCD33 R69G variant. Description: FACS, direct Dylight 488 conjugate, on 293AD cells labelled 'SNPG69R', taken as the SNP variant of paragraph 650. This is another data set of the same source.
As for B3, the “Geom. Mean:FL1-H” value came out at 71.7.

B4: the “Geom. Mean:FL1-H” value amounted to 103.

Consider B15, for which the “Geom. Mean:FL1-H” value was 123.

Regarding B5, the “Geom. Mean:FL1-H” value turned out to be 125.

The target in another assay is T1, Cynomolgus monkey CD33. Description: Scatchard analysis, [125I]-labeled antibody competed by unlabeled antibody, HEK293AD cells stably expressing cynomolgus CD33.
In the case of B6, the equilibrium dissociation constant (Kd) worked out at 0.92 nM.

In the case of B3, the Kd came to 0.7 nM.

B4 gave a Kd of 0.7 nM.

B8 registered a Kd of 0.3 nM.

Regarding B9, the dissociation constant (Kd) turned out to be 0.2 nM.

Consider B10, for which the Kd is 0.2 nM.

B5: the dissociation constant (Kd) amounted to 0.54 nM.

As to B11, the Kd was 0.6 nM.

In turn, B7 had a Kd of 4.5 nM.

The target of the next assay is T4, Human CD33. The assay can be described thus: FACS titration on EOL-1 cells (endogenous huCD33), geometric mean fluorescence, 0.1-10 µg/ml antibody.
One may read the EC50 as the concentration giving half of the maximal effect. In turn, B11 showed an EC50 of 0.54 µg/mL.

For B12, the EC50 stood at 0.23 µg/mL.

B13: the midpoint of the response, the EC50, lay at 0.42 µg/mL.

B14: the 50% effective concentration (EC50) is 0.46 µg/mL.

A further assay has as its target T2, Construct-88B: CD33 Ig-like V (M17-V136 …). The assay can be described thus: FACS, Dylight-650 labeled antibody (1-10 ug/ml) on 293 cells transiently transfected with construct 88B.
As for B3, the “fold binding over isotype control” value is at least 100 fold.

With B4, the “fold binding over isotype control” value is at least 100 fold.

For a further assay, the target named is T4, Human CD33. The assay can be described thus: Scatchard analysis, [125I]-labeled antibody competed by unlabeled antibody, HEK293AD cells stably expressing human CD33.
B6: the Kd is 8.7 nM.

The molecule B3 yielded an equilibrium dissociation constant (Kd) of 6.5 nM.

B4 registered a Kd of 3.3 nM.

In turn, B8 returned a Kd of 0.7 nM.

B9 had a dissociation constant Kd of 0.7 nM.

The molecule B10 displayed a Kd of 0.5 nM.

As to B11, the affinity, expressed as Kd, was 0.8 nM.

With B1, the affinity, expressed as Kd, was 2.4 nM.

Molecule B7 had a dissociation constant Kd of 13.4 nM.
